Test results published in publication PMC9482650, “Quantitative fragmentomics allow affinity mapping of interactomes” (Nature Communications, 2022).

Tests used:
Assay in all cases: holdup assay
Parameters in all cases: key: below the threshold = too weak to quantify, mostly under pKd 3.1 to 4
[1] = biological target: IL16_3, Q14005
[2] = biological target: T1, DLG3_3, Q92796
T1 sequence (Q92796 374-475, limits assumed, looked up): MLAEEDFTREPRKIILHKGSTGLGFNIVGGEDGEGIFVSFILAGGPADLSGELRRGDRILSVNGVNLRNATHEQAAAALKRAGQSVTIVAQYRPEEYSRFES

[3] = biological target: T2, GRIP1_7, Q9Y3R0
T2 sequence (Q9Y3R0 999-1096, limits assumed, looked up): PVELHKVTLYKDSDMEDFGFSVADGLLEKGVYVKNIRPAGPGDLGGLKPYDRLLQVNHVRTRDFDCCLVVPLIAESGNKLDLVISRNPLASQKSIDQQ

[4] = biological target: LIMK2, P53671
[5] = biological target: DLG1_1, Q12959
[6] = biological target: T3, DFNB31_2, Q9P202
T3 sequence (Q9P202 274-371, limits assumed, looked up): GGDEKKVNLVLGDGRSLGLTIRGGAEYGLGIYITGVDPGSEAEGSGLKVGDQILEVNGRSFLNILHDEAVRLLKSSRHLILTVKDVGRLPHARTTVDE

[7] = biological target: T4, PTPN13_1, Q12923
T4 sequence (Q12923 1088-1188, limits assumed, looked up): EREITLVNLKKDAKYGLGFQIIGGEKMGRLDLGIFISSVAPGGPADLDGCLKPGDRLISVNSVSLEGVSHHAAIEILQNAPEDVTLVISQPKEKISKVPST

[8] = biological target: T5, DFNB31_3, Q9P202
T5 sequence (Q9P202 811-907, limits assumed, looked up): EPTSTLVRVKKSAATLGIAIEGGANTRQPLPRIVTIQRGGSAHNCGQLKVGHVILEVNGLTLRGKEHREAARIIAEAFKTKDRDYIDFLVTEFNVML

[9] = biological target: SCRIB_2, Q14160
[10] = biological target: T6, LNX2_3, Q8N448
T6 sequence (Q8N448 463-564, limits assumed, looked up): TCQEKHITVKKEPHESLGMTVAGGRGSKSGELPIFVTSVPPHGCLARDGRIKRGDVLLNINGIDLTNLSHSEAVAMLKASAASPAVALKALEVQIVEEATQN

[11] = biological target: T7, NHERF3_1, Q5T2W1
T7 sequence (Q5T2W1 4-100, limits assumed, looked up): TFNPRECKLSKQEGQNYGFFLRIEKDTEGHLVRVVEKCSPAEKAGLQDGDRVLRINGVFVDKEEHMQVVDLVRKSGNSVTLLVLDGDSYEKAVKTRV

[12] = biological target: FRMPD3, Q5JV73
[13] = biological target: SCRIB_3, Q14160
[14] = biological target: PTPN3, P26045
[15] = biological target: T8, GRIP1_5, Q9Y3R0
T8 sequence (Q9Y3R0 568-668, limits assumed, looked up): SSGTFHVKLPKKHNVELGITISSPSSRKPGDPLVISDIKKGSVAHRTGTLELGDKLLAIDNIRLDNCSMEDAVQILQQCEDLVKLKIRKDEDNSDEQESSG

[16] = biological target: TJP2_1, Q9UDY2
[17] = biological target: LNX1_1, Q8TBB1
[18] = biological target: T9, LNX2_2, Q8N448
T9 sequence (Q8N448 334-432, limits assumed, looked up): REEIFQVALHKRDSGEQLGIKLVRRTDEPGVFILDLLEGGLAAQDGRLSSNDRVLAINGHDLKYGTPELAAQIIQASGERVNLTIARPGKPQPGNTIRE

[19] = biological target: T10, DVL3, Q92997
T10 sequence (Q92997 244-331, limits assumed, looked up): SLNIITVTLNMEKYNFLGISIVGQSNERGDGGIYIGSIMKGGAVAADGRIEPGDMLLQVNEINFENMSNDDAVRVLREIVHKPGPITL

[20] = biological target: Inadl_4, Q8NI35
[21] = biological target: MAGI2_3, Q86UL8
[22] = biological target: NHERF4_1, Q86UT5-2
[23] = biological target: T11, LIN7C, Q9NUP9
T11 sequence (Q9NUP9 88-185, limits assumed, looked up): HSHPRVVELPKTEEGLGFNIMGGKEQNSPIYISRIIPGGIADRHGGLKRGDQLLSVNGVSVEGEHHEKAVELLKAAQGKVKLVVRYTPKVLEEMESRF

[24] = biological target: MAGI1_2, Q96QZ7
[25] = biological target: GRIP2_6, Q9C0E4
[26] = biological target: T12, MPP2, Q14168
T12 sequence (Q14168 180-250, limits assumed, looked up): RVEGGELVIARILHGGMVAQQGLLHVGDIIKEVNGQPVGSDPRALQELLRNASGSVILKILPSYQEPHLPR

[27] = plain residues with an end cap or a label only (N-terminal biotin on a linker: ado-ado)
[28] = plain residues with an end cap or a label only (N-terminal biotin on a linker: (peg)3)

Inadl_4, Q8NI35, sequence (Q8NI35 547-651): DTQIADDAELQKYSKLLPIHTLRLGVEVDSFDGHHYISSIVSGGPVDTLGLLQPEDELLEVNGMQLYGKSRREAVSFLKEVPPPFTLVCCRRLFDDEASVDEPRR
MAGI1_2, Q96QZ7, sequence (Q96QZ7 456-580): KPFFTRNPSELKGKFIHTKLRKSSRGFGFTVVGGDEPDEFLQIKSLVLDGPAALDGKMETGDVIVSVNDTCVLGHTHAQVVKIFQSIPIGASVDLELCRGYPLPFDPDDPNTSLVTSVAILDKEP
SCRIB_3, Q14160, sequence (Q14160 999-1103): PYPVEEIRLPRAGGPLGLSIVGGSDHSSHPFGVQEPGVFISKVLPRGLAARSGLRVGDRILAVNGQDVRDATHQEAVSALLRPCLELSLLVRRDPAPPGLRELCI
PTPN3, P26045, sequence (P26045 505-587): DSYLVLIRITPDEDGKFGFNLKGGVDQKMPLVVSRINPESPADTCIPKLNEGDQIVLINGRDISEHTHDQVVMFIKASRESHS
SCRIB_2, Q14160, sequence (Q14160 857-960): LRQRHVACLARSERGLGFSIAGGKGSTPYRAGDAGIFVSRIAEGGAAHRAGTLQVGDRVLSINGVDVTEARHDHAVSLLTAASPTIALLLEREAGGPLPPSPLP
GRIP2_6, Q9C0E4, sequence (Q9C0E4 648-740): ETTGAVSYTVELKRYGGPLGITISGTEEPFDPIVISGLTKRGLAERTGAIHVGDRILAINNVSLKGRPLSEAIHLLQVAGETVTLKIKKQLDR
IL16_3, Q14005, sequence (Q14005 1107-1207): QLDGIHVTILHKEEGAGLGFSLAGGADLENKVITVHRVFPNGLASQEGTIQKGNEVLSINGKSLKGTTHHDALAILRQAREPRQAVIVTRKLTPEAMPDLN
TJP2_1, Q9UDY2, sequence (Q9UDY2 24-128): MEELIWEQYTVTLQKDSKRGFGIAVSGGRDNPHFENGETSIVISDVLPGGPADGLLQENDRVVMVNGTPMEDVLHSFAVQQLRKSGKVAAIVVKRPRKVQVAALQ
LIMK2, P53671, sequence (P53671 143-248): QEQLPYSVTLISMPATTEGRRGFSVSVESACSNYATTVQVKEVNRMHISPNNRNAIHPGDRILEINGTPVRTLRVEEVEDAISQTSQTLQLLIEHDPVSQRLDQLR
FRMPD3, Q5JV73, sequence (Q5JV73 12-100): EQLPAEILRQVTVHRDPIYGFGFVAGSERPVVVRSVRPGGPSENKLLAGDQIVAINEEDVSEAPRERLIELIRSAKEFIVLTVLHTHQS
NHERF4_1, Q86UT5-2, sequence (Q86UT5 other isoform, or with tags, fused parts or gaps): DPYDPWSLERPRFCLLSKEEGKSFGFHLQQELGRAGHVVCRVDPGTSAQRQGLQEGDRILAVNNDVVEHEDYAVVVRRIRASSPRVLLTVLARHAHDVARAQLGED
MAGI2_3, Q86UL8, sequence (Q86UL8 600-682): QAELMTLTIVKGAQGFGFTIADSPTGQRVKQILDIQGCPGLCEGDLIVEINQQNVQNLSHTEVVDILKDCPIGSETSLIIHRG
LNX1_1, Q8TBB1, sequence (Q8TBB1 261-371): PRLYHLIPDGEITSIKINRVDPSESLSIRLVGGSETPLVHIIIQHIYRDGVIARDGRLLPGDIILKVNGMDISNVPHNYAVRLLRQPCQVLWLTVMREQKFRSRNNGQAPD

B1: PLEKHA1, Q9HB21 (peptide)
chain: DDASLPVSDV
In the case of B1, the pKd [1, 27] is reported as “below the threshold”, the pKd [2, 27] is reported as “below the threshold” and the pKd [3, 27] is reported as “below the threshold”. The pKd [4, 27] was “below the threshold”, the pKd [5, 27] was “below the threshold” and the pKd [6, 27] was “below the threshold”. The pKd [7, 27] was “below the threshold”, the pKd [8, 27] was 4.54 and the pKd [9, 27] was “below the threshold”. For the same binder, the pKd [10, 27] was “below the threshold”, the pKd [11, 27] was “below the threshold” and the pKd [12, 27] was “below the threshold”. The pKd [13, 27] was 4.1, the pKd [14, 27] was 3.58 and the pKd [15, 27] was “below the threshold”. For the same binder, the pKd [16, 27] was “below the threshold”, the pKd [17, 27] was 4.91 and the pKd [18, 27] was “below the threshold”. For the same binder, the pKd [19, 27] was “below the threshold”, the pKd [20, 27] was “below the threshold” and the pKd [21, 27] was “below the threshold”. The pKd [22, 27] was “below the threshold”, the pKd [23, 27] was 4.01 and the pKd [24, 27] was “below the threshold”. The pKd [25, 27] was “below the threshold” and the pKd [26, 27] was “below the threshold”.

B2: TRIP6, Q15654 (peptide)
chain: ELSATVTTDC
In the case of B2, the pKd [1, 27] is reported as 3.59, the pKd [2, 27] is reported as “below the threshold” and the pKd [3, 27] is reported as “below the threshold”. The pKd [4, 27] was “below the threshold”, the pKd [5, 27] was “below the threshold” and the pKd [6, 27] was “below the threshold”. The pKd [7, 27] was “below the threshold”, the pKd [8, 27] was 3.62 and the pKd [9, 27] was “below the threshold”. The pKd [10, 27] was “below the threshold”, the pKd [11, 27] was “below the threshold” and the pKd [12, 27] was “below the threshold”. For the same binder, the pKd [13, 27] was 4.24, the pKd [14, 27] was 4.31 and the pKd [15, 27] was “below the threshold”. For the same binder, the pKd [16, 27] was “below the threshold”, the pKd [17, 27] was 3.95 and the pKd [18, 27] was 3.76. For the same binder, the pKd [19, 27] was “below the threshold”, the pKd [20, 27] was “below the threshold” and the pKd [21, 27] was 3.56. For the same binder, the pKd [22, 27] was 3.69, the pKd [23, 27] was “below the threshold” and the pKd [24, 27] was “below the threshold”. For the same binder, the pKd [25, 27] was “below the threshold” and the pKd [26, 27] was “below the threshold”.

B3: SARS-Cov2-N, P0DTC9 (peptide)
chain: QQSMSSADSTQA
B3 was tested, and the pKd [1, 28] was “below the threshold”, the pKd [2, 28] was “below the threshold” and the pKd [3, 28] was “below the threshold”. For the same binder, the pKd [4, 28] was “below the threshold”, the pKd [5, 28] was “below the threshold” and the pKd [6, 28] was “below the threshold”. The pKd [7, 28] was “below the threshold”, the pKd [8, 28] was “below the threshold” and the pKd [9, 28] was “below the threshold”. The pKd [10, 28] was 3.88, the pKd [11, 28] was “below the threshold” and the pKd [12, 28] was “below the threshold”. For the same binder, the pKd [13, 28] was “below the threshold”, the pKd [14, 28] was “below the threshold” and the pKd [15, 28] was “below the threshold”. For the same binder, the pKd [16, 28] was “below the threshold”, the pKd [17, 28] was “below the threshold” and the pKd [18, 28] was “below the threshold”. For the same binder, the pKd [19, 28] was “below the threshold”, the pKd [20, 28] was “below the threshold” and the pKd [21, 28] was “below the threshold”. For the same binder, the pKd [22, 28] was “below the threshold”, the pKd [23, 28] was “below the threshold” and the pKd [24, 28] was “below the threshold”. The pKd [25, 28] was “below the threshold” and the pKd [26, 28] was “below the threshold”.

B4: SLC22A9, Q8IVM8 (peptide)
chain: EDPRVEVTQF
B4 was tested, and the pKd [1, 27] was “below the threshold”, the pKd [2, 27] was “below the threshold” and the pKd [3, 27] was “below the threshold”. The pKd [4, 27] was “below the threshold”, the pKd [5, 27] was “below the threshold” and the pKd [6, 27] was “below the threshold”. For the same binder, the pKd [7, 27] was “below the threshold”, the pKd [8, 27] was 3.84 and the pKd [9, 27] was “below the threshold”. For the same binder, the pKd [10, 27] was “below the threshold”, the pKd [11, 27] was 4.58 and the pKd [12, 27] was “below the threshold”. The pKd [13, 27] was 3.66, the pKd [14, 27] was 4.18 and the pKd [15, 27] was “below the threshold”. For the same binder, the pKd [16, 27] was “below the threshold”, the pKd [17, 27] was “below the threshold” and the pKd [18, 27] was “below the threshold”. For the same binder, the pKd [19, 27] was “below the threshold”, the pKd [20, 27] was “below the threshold” and the pKd [21, 27] was “below the threshold”. For the same binder, the pKd [22, 27] was 4.3, the pKd [23, 27] was “below the threshold” and the pKd [24, 27] was “below the threshold”. For the same binder, the pKd [25, 27] was “below the threshold” and the pKd [26, 27] was “below the threshold”.

B5: AQP3, Q92482 (peptide)
chain: LAHVKHKEQI
With B5 the pKd [1, 27] was “below the threshold”, the pKd [2, 27] was “below the threshold” and the pKd [3, 27] was “below the threshold”. The pKd [4, 27] was “below the threshold”, the pKd [5, 27] was “below the threshold” and the pKd [6, 27] was “below the threshold”. The pKd [7, 27] was “below the threshold”, the pKd [8, 27] was “below the threshold” and the pKd [9, 27] was “below the threshold”. The pKd [10, 27] was “below the threshold”, the pKd [11, 27] was “below the threshold” and the pKd [12, 27] was “below the threshold”. For the same binder, the pKd [13, 27] was “below the threshold”, the pKd [14, 27] was “below the threshold” and the pKd [15, 27] was “below the threshold”. The pKd [16, 27] was “below the threshold”, the pKd [17, 27] was “below the threshold” and the pKd [18, 27] was “below the threshold”. The pKd [19, 27] was “below the threshold”, the pKd [20, 27] was “below the threshold” and the pKd [21, 27] was “below the threshold”. The pKd [22, 27] was “below the threshold”, the pKd [23, 27] was “below the threshold” and the pKd [24, 27] was “below the threshold”. The pKd [25, 27] was “below the threshold” and the pKd [26, 27] was “below the threshold”.
